Biological target: T1, recombinant rat apolipoprotein E (rat), P02650
T1 chain: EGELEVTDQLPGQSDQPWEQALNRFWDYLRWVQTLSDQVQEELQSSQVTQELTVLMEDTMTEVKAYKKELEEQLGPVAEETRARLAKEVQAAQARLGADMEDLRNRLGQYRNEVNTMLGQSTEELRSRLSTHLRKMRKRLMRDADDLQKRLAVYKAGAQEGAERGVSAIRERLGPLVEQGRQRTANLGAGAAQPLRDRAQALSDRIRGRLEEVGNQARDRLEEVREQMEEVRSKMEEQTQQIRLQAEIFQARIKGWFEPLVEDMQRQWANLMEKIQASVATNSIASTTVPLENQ
Assay: SEC
Conditions: remark: other sources report otherwise

stoichiometry N: 4
B1: recombinant rat apolipoprotein E, P02650 19-312 (natural protein)
chain: T1 chain
